The values below are quoted from earlier work in PMC7149769.

One may read the Kd as the equilibrium constant for the complex coming apart.

One series deals with Factor Xa (Homo sapiens) (UniProt P00742).
A further series concerns the target Factor X (Homo sapiens) (UniProt P00742).

As for Factor Va (from UniProt P12259), the dissociation constant (Kd) in the series with Factor Xa (Homo sapiens) is 1 nM.

As to Mac-1 (from UniProt P11215), in the series with Factor X (Homo sapiens), the Kd is 30 nM.
